Key:
[1] = biological target: tau K18 ΔK280 (I260C/C291A/C322A), labelled with Alexa488 or Alexa647; assay: FRET or BRET; single-molecule FRET between copies; 5 μM tau–Alexa488 + 5 μM tau–Alexa647, aggregation started with heparin (1:4 heparin/tau), 22-42 °C; aliquots diluted 12.500 times into low ionic strength buffer (no NaCl); confocal detection in a microfluidic channel, 6 min per time point
[2] = biological target: tau K18 ΔK280 (I260C/C291A/C322A), labelled with Alexa488 or Alexa647; assay: FRET or BRET; single-molecule FRET between copies; 5 μM tau–Alexa488 + 5 μM tau–Alexa647, aggregation started with heparin (1:4 heparin/tau), 22-42 °C; aliquots diluted 12.500 times into high ionic strength buffer (0.5 M NaCl); confocal detection in a microfluidic channel, 6 min per time point

A maximum observed concentration of type A oligomers (37 °C) [1] of 104 nM and a maximum observed concentration of type B oligomers (37 °C) [2] of 37 nM were found for “tau K18 ΔK280 (I260C/C291A/C322A), labelled with Alexa488 or Alexa647 (domain or fragment)” in this work.

— paper PMC6302314
